B1: glmS ribozyme (parent)
chain: AUAAAAGCGCCAGAACUACAGAAAUGUAGUUGACGAGGAGGAGGUUUAUCGAAUUUUCGGCGGAUGCCUCCAAA

Common to all, as to conditions: with glucosamine-6-phosphate
The variants in series [1] derive from B1. As to the kind of experiment: self-cleavage kobs at 640 uM GlcN6P; higher = faster cleavage; RNA array. In outline:
(§1)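 Glucosamine-6-phosphate in HEPES/KCl/Mg(OAc)2 buffer, at 40 μM to 10 mM, was flowed over barcoded ribozyme variants transcribed in situ by E. coli RNA polymerase on sequenced MiSeq chips. Tracking was through a hybridised Cy3 probe at 37 °C. kobs, kcat and KM came from exponential decay fits and weighted Michaelis–Menten fits of normalised per-tile medians.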

The variants in series [2] derive from B1. As to the kind of experiment: self-cleavage kobs at 2500 uM GlcN6P; higher = faster cleavage; RNA array. In outline: as §1
Variants of B1 are the subject of series [3]. Briefly: self-cleavage kobs at 10000 uM GlcN6P; higher = faster cleavage; RNA array. The gist of the method: as §1

± gives the standard error. Fewer inactive variants are shown than the library holds.

C8U G9U C68A: the “self-cleavage kobs at 640 uM GlcN6P” value with glucosamine-6-phosphate [1] was less than 1e-05 s⁻¹. Besides, in the series with glucosamine-6-phosphate [2], the “self-cleavage kobs at 2500 uM GlcN6P” value is less than 1e-05 s⁻¹.

Take A39G U46C U47G U65A: the “self-cleavage kobs at 640 uM GlcN6P” value with glucosamine-6-phosphate [1] turned out to be 0.0001 ± 3.8e-05 s⁻¹.

As for C11G C70G, the “self-cleavage kobs at 640 uM GlcN6P” value with glucosamine-6-phosphate [1] came to 9.08e-05 ± 1.6e-05 s⁻¹. Also, in the series with glucosamine-6-phosphate [2], the “self-cleavage kobs at 2500 uM GlcN6P” value is 5.33e-05 ± 1.4e-05 s⁻¹. Also, in the series with glucosamine-6-phosphate [3], the “self-cleavage kobs at 10000 uM GlcN6P” value worked out at 2.25e-05 ± 9.6e-06 s⁻¹.

Turning to G32C U47G G59C, the “self-cleavage kobs at 640 uM GlcN6P” value with glucosamine-6-phosphate [1] is less than 1e-05 s⁻¹. The “self-cleavage kobs at 2500 uM GlcN6P” value with glucosamine-6-phosphate [2] was less than 1e-05 s⁻¹.

G35U U47A: in the series with glucosamine-6-phosphate [1], the “self-cleavage kobs at 640 uM GlcN6P” value is less than 1e-05 s⁻¹. For the same variant, the “self-cleavage kobs at 2500 uM GlcN6P” value with glucosamine-6-phosphate [2] was less than 1e-05 s⁻¹.

Regarding U55G U65C C70U, the “self-cleavage kobs at 640 uM GlcN6P” value with glucosamine-6-phosphate [1] was determined as 0.00017 ± 3.7e-05 s⁻¹. Besides, the “self-cleavage kobs at 2500 uM GlcN6P” value with glucosamine-6-phosphate [2] is 0.000458 ± 0.00012 s⁻¹.

In the case of A6U A15G C19A A33C C68G, in the series with glucosamine-6-phosphate [1], the “self-cleavage kobs at 640 uM GlcN6P” value was less than 1e-05 s⁻¹. Further, the “self-cleavage kobs at 2500 uM GlcN6P” value with glucosamine-6-phosphate [2] is less than 1e-05 s⁻¹.

As for U31C A33U A36U G38C C58U U65G G66C C71U, the “self-cleavage kobs at 640 uM GlcN6P” value with glucosamine-6-phosphate [1] was less than 1e-05 s⁻¹. Moreover, in the series with glucosamine-6-phosphate [2], the “self-cleavage kobs at 2500 uM GlcN6P” value is less than 1e-05 s⁻¹.

With G13C A33G G40U U49G G63A, the “self-cleavage kobs at 640 uM GlcN6P” value with glucosamine-6-phosphate [1] was less than 1e-05 s⁻¹.

With U47G G59A C67G, in the series with glucosamine-6-phosphate [1], the “self-cleavage kobs at 640 uM GlcN6P” value stood at 0.000579 ± 0.00015 s⁻¹.

For A6G G9U C58A, the “self-cleavage kobs at 640 uM GlcN6P” value in the series with glucosamine-6-phosphate [1] is less than 1e-05 s⁻¹. Also, the “self-cleavage kobs at 2500 uM GlcN6P” value with glucosamine-6-phosphate [2] is less than 1e-05 s⁻¹. Besides, in the series with glucosamine-6-phosphate [3], the “self-cleavage kobs at 10000 uM GlcN6P” value was less than 1e-05 s⁻¹.

For C11G G13C A48G, the “self-cleavage kobs at 640 uM GlcN6P” value in the series with glucosamine-6-phosphate [1] was less than 1e-05 s⁻¹. The “self-cleavage kobs at 2500 uM GlcN6P” value with glucosamine-6-phosphate [2] is less than 1e-05 s⁻¹.

Take G40U G41C C70A: in the series with glucosamine-6-phosphate [1], the “self-cleavage kobs at 640 uM GlcN6P” value is 6.65e-05 ± 1.8e-05 s⁻¹. The “self-cleavage kobs at 2500 uM GlcN6P” value with glucosamine-6-phosphate [2] came out at 0.000546 ± 0.00013 s⁻¹.

Consider C8G C11G A14C A39G C50G, for which the “self-cleavage kobs at 640 uM GlcN6P” value with glucosamine-6-phosphate [1] is 8.19e-05 ± 2.8e-05 s⁻¹.

For the variant A14U C50G G62A, the “self-cleavage kobs at 640 uM GlcN6P” value in the series with glucosamine-6-phosphate [1] was 0.000193 ± 8.2e-05 s⁻¹.

With A52C A53U U55A U65A, in the series with glucosamine-6-phosphate [1], the “self-cleavage kobs at 640 uM GlcN6P” value was less than 1e-05 s⁻¹. For the same variant, the “self-cleavage kobs at 2500 uM GlcN6P” value with glucosamine-6-phosphate [2] was less than 1e-05 s⁻¹.

Take G7U A39C A42C: the “self-cleavage kobs at 640 uM GlcN6P” value with glucosamine-6-phosphate [1] was less than 1e-05 s⁻¹. The “self-cleavage kobs at 2500 uM GlcN6P” value with glucosamine-6-phosphate [2] was less than 1e-05 s⁻¹.

Regarding G41C G63C A64U, the “self-cleavage kobs at 640 uM GlcN6P” value in the series with glucosamine-6-phosphate [1] was less than 1e-05 s⁻¹. The “self-cleavage kobs at 2500 uM GlcN6P” value with glucosamine-6-phosphate [2] is less than 1e-05 s⁻¹.

On to G35U G51A G63A C67A, for which the “self-cleavage kobs at 640 uM GlcN6P” value with glucosamine-6-phosphate [1] is less than 1e-05 s⁻¹. In addition, in the series with glucosamine-6-phosphate [2], the “self-cleavage kobs at 2500 uM GlcN6P” value was less than 1e-05 s⁻¹.

In the case of A12U U47G A52U C61U, the “self-cleavage kobs at 640 uM GlcN6P” value with glucosamine-6-phosphate [1] was less than 1e-05 s⁻¹.

As to C8U A15C A33U G37C C71G, the “self-cleavage kobs at 640 uM GlcN6P” value with glucosamine-6-phosphate [1] was found to be 5.18e-05 ± 2.5e-05 s⁻¹.

G35U A36G C61A: the “self-cleavage kobs at 640 uM GlcN6P” value with glucosamine-6-phosphate [1] is less than 1e-05 s⁻¹.

Turning to A52C U56C C67U, in the series with glucosamine-6-phosphate [1], the “self-cleavage kobs at 640 uM GlcN6P” value is less than 1e-05 s⁻¹.

Turning to C58G G59U C68G, the “self-cleavage kobs at 640 uM GlcN6P” value in the series with glucosamine-6-phosphate [1] worked out at 4.54e-05 ± 1.7e-05 s⁻¹.

U46A U49A U56C A64G: in the series with glucosamine-6-phosphate [1], the “self-cleavage kobs at 640 uM GlcN6P” value was less than 1e-05 s⁻¹.

For the variant C10A A36C U46A, the “self-cleavage kobs at 640 uM GlcN6P” value with glucosamine-6-phosphate [1] was less than 1e-05 s⁻¹. Further, the “self-cleavage kobs at 2500 uM GlcN6P” value with glucosamine-6-phosphate [2] was less than 1e-05 s⁻¹. The “self-cleavage kobs at 10000 uM GlcN6P” value in the series with glucosamine-6-phosphate [3] was less than 1e-05 s⁻¹.

As to A33C G41A A53U, the “self-cleavage kobs at 640 uM GlcN6P” value with glucosamine-6-phosphate [1] is less than 1e-05 s⁻¹.

For the variant A15U G35U U46A, the “self-cleavage kobs at 640 uM GlcN6P” value with glucosamine-6-phosphate [1] was less than 1e-05 s⁻¹. Moreover, the “self-cleavage kobs at 2500 uM GlcN6P” value with glucosamine-6-phosphate [2] was less than 1e-05 s⁻¹.

Consider C8G U55C C71A, for which, in the series with glucosamine-6-phosphate [1], the “self-cleavage kobs at 640 uM GlcN6P” value was less than 1e-05 s⁻¹. The “self-cleavage kobs at 2500 uM GlcN6P” value with glucosamine-6-phosphate [2] is less than 1e-05 s⁻¹.

A6U G29A G37A G38A A42C G43U G62U C70U: the “self-cleavage kobs at 640 uM GlcN6P” value with glucosamine-6-phosphate [1] was less than 1e-05 s⁻¹. Moreover, the “self-cleavage kobs at 2500 uM GlcN6P” value with glucosamine-6-phosphate [2] is less than 1e-05 s⁻¹.

For A6U C16U G40U C67A, the “self-cleavage kobs at 640 uM GlcN6P” value with glucosamine-6-phosphate [1] was less than 1e-05 s⁻¹. The “self-cleavage kobs at 2500 uM GlcN6P” value with glucosamine-6-phosphate [2] is less than 1e-05 s⁻¹.

As to U46G G51U C71U, the “self-cleavage kobs at 640 uM GlcN6P” value in the series with glucosamine-6-phosphate [1] was less than 1e-05 s⁻¹. Moreover, the “self-cleavage kobs at 2500 uM GlcN6P” value in the series with glucosamine-6-phosphate [2] is less than 1e-05 s⁻¹.

For the origin of these results see the supplement of paper PMC7125110.
